For this test, the target named is T1, rat Y4 receptor (rat), Q63447.
T1 chain: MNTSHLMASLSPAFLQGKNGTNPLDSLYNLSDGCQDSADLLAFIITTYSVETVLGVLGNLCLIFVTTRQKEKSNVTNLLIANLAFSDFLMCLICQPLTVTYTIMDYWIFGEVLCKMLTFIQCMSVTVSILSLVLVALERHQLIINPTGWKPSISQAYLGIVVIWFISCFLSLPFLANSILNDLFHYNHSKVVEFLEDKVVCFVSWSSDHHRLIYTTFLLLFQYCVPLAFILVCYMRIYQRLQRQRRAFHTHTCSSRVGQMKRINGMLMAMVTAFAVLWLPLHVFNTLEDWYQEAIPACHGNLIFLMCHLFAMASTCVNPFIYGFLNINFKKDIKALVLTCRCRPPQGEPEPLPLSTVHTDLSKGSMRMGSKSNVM
Nature of the test: 125I-PYY displacement, COS-7 membranes. The note with it: remark: other sources report otherwise.

PAEDLARYYSALRHYINLITRQRY (peptide, UniProt P01304 22-45, looked up) [porcine NPY13-36, P01304 22-45] had a Ki of 140 nM.

By Ki is commonly meant a dissociation constant, usually derived from enzyme kinetics or from competition with a known ligand. Lower therefore signals tighter binding.
